Measurements: patent US20210388081A1 (Memorial Sloan Kettering, published 2021)

Key:
[1] = biological target: T1, FcRL2, overexpressed on 3T3 cells (UniProt Q96LA5 20-508, limits assumed); assay: phage clone on 3T3-FcRL2 cells
T1 construct: whole, on cells
T1 sequence (looked up): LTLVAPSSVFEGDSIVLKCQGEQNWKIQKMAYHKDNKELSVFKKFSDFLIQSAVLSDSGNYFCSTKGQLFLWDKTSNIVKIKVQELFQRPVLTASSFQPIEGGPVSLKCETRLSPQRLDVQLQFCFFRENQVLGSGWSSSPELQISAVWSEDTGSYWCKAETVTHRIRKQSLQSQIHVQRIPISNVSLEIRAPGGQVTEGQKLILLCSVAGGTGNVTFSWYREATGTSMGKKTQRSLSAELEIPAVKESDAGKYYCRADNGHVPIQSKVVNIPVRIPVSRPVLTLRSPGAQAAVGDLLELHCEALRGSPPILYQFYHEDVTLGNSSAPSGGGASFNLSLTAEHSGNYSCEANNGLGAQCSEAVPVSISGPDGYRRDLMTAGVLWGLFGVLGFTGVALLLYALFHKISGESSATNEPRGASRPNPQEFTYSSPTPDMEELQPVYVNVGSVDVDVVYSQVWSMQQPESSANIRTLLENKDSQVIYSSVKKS

[2] = biological target: T2, FcRL4, overexpressed on 3T3 cells (UniProt Q96PJ5 20-515, limits assumed); assay: phage clone on 3T3-FcRL4 cells
T2 construct: whole, on cells
T2 sequence (looked up): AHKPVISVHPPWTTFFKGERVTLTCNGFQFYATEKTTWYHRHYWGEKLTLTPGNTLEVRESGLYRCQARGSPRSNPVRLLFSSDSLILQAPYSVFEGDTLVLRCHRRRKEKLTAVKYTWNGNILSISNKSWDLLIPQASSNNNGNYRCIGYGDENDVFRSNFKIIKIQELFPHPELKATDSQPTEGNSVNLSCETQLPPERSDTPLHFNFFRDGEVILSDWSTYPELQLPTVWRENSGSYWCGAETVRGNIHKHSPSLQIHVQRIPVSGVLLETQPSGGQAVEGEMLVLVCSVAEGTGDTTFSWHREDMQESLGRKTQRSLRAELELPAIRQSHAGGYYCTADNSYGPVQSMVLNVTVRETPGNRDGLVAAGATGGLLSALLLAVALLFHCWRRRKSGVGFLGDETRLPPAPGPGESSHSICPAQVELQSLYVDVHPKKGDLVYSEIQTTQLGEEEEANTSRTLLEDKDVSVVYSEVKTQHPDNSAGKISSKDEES

[3] = biological target: T3, FcRL3, overexpressed on 3T3 cells (UniProt Q96P31 18-734, limits assumed); assay: phage clone on 3T3-FcRL3 cells
T3 construct: whole, on cells
T3 sequence (looked up): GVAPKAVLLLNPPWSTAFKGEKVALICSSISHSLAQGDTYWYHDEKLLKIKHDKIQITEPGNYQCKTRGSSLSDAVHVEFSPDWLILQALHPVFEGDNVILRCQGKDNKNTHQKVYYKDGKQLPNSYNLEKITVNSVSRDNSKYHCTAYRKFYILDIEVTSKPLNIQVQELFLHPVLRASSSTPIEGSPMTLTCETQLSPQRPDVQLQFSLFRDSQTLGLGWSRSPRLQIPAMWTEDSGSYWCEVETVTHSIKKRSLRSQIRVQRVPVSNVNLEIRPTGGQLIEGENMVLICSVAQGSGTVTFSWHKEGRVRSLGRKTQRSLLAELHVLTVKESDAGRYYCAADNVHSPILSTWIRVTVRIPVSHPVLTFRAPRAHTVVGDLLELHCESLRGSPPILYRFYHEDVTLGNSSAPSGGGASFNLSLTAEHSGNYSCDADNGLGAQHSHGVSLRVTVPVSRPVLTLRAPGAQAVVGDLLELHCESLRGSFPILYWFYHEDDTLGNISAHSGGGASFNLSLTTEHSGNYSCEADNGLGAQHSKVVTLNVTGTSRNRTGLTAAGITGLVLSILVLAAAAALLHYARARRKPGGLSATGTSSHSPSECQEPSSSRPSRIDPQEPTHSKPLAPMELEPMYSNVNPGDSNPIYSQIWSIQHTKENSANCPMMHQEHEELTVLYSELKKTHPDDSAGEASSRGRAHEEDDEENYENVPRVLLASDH

[4] = biological target: T4, Fc Receptor-like 5 (FcRL5), full length, overexpressed on 3T3 or Raji cells (human, UniProt Q96RD9 16-977); assay: phage clone screening on cells
T4 construct: also called 3T3-FcRL5
T4 sequence: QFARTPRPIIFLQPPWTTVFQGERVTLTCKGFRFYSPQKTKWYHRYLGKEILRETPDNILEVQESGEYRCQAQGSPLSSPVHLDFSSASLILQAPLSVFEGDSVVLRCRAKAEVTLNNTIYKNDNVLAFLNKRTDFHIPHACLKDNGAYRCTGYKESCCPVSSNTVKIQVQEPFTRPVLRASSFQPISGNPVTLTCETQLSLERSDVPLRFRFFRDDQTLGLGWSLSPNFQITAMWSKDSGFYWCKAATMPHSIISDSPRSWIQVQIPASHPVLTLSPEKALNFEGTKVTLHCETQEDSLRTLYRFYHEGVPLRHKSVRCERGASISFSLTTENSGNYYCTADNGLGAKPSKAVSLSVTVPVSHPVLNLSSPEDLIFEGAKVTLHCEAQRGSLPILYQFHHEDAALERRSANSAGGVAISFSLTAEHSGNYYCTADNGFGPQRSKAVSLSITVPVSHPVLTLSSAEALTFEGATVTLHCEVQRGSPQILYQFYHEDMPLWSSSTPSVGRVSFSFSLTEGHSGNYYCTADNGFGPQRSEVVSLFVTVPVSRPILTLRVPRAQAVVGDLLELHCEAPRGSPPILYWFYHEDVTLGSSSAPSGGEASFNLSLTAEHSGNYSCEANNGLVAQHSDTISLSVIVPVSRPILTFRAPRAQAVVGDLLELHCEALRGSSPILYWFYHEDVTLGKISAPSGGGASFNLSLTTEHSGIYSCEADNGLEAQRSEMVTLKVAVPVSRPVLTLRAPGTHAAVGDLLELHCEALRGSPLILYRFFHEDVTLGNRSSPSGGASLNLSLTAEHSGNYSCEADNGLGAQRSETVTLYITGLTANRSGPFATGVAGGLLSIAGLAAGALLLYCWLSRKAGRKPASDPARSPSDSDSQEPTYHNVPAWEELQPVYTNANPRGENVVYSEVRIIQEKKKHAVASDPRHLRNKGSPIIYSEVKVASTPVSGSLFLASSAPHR
Procedure, shortened: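 scFv phage clones were incubated with live 3T3 cells overexpressing full-length FcRL5, then detected with mouse anti-M13 mAb and PE-anti-mouse Ig by flow cytometry. 3T3 cells expressing FcRL1, 2, 3, 4 or 6 served as negative-control targets.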

Row | Binder | binding result [1] | binding result [2] | binding result [3] | binding result [4]
1 | ET200-103 (scFv, screened as phage clone; entry is VL-linker-VH-His tag-HA tag) scFv: QAVLTQPHSVSESPGKTVTISCTRSSGSIASNYVQWYQQRPGSAPTTVIYEDNQRPSGVPDRFSGSIDSSSNSASLTISGLKTEDEADYYCQSYDSTITVFGGGTKLTVLGSRGGGGSGGGGSGGGGSLEMAQVQLVQSGAEVKKPGSSVKVSCKASGGTFSSYAISWVRQAPGQGLEWMGGIIPIFGTANYAQKFQGRVTITADESTSTAYMELSSLRSEDTAVYYCAGEGYYDSSGYSNGDAFDIWGQGTMVTVSSTSGQAGQHHHHHHGAYPYDVPDYAS | no binding | no binding | no binding | binds
2 | ET200-101 (scFv, screened as phage clone; entry is VL-linker-VH-His tag-HA tag) scFv: QAVLTQPPSASGAPGQRVTVSCSGSNSNIGSNYVNWYQQFPGTAPKLLMYSSSQRPSGVPDRFSGSKSGTSASLAISGLHSEDEADYYCATWDDSLNAWVFGGGTKLTVLGSRGGGGSGGGGSGGGGSLEMAEVQLVQSGAEVRKPGASVKVSCKTSGYTFTWYAIHWVRQAPGQRLEWMGWINAGSGNTKYSQKFQGRVTLTRDTSASTAYMELSSLRSDDTAVYYCARPNNYGSGGDVFDIWGQGTMVTVSSTSGQAGQHHHHHHGAYPYDVPDYAS | no binding | no binding | no binding | binds
3 | ET200-108 (scFv, screened as phage clone; entry is VL-linker-VH-His tag-HA tag) scFv: QSVLTQPPSVSAPPGQKVTISCSGSSSNIGNNYVSWYQQFPGTAPKLLIYDNNKRPSGISDRFSGSKSGTSATLGIAGLQTGDEADYYCGTWDTSLSGFYVFGSGTKVTVLGSRGGGGSGGGGSGGGGSLEMAEVQLVQSGAEVKKPGASVKVSCKASGYTFTSYTISWVRQAPGQGLEWMGWISTYNGLTNYAQNLQGRVTMTTDTFTTTAYMELRSLRSDDTAVYYCVREGSPDYGDFASFDYWGQGTLVTVSSTSGQAGQHHHHHHGAYPYDVPDYAS | no binding | no binding | no binding | binds
4 | ET200-106 (scFv, screened as phage clone; entry is VL-linker-VH-His tag-HA tag) scFv: SYELTQPPAASGTPGQRVTISCSGGVSNIGSGALNWYQQLPGTAPKLLIYSYNQRPSGVSDRFSGSRSATSASLAISGLQSEDEADYYCATWDDSVNGWVFGGGTKLTVLGSRGGGGSGGGGSGGGGSLEMAEVQLVESGAEVKKPGDSVKVSCKPSGYNFLNYGINWVRQAPGQGLEWMGWISTYTGNTNYAQKLQGRVTFTTDTSTSTAYMEMRSLRSDDTAVYYCARQQGGGWYDVWGQGTLVTVSSTSGQAGQHHHHHHGAYPYDVPDYAS | no binding | no binding | no binding | binds
5 | ET200-107 (scFv, screened as phage clone; entry is VL-linker-VH-His tag-HA tag) scFv: QSVVTQPPSVSAAPGEKVTISCSGSNFNVGNNDVSWYQQLPGAAPKLLIYDNNKRPSGIPDRFSGSKSGTSATLDITGLHSDDEADYYCGTWDSSLNTGGVFGTGTKVTVLGSRGGGGSGGGGSGGGGSLEMAEVQLVQSGAEVKKPGASVKVSCKASGYTFTSYTISWVRQAPGQGLEWMGWISTYNGLTNYAQNLQGRVTMTTDTFTTTAYMELRSLRSDDTAVYYCVREGSPDYGDFASFDYWGQGTLVTVSSTSGQAGQHHHHHHGAYPYDVPDYAS | no binding | no binding | no binding | binds
6 | ET200-102 (scFv, screened as phage clone; entry is VL-linker-VH-His tag-HA tag) scFv: QSVVTQPPSVSAAPGQKVTISCSGSSSNIGNNYVSWYQQLPGTAPKLLIYDNNKRPSGIPDRFSGSKSGTSATLGITGLQTGDEADYYCGTWDSSLSAYVFGTGTKVTVLGSRGGGGSGGGGSGGGGSLEMAQVQLVQSGAEVKKPGASVKVSCKASGYTFTNYALHWVRQAPGQGLEWMAWINGGNGNTKYSQNFQGRVTITRDTSASTAYMELSSLRSEDTAVYYCAKPEETAGTIHFDYWGQGTPVTVSSTSGQAGQHHHHHHGAYPYDVPDYAS | no binding | no binding | no binding | binds
7 | ET200-105 (scFv, screened as phage clone; entry is VL-linker-VH-His tag-HA tag) scFv: SYVLTQPPSVSVSPGQTASITCSGDRLTNKYVSWYQQKPGQSPVLVIYEDAKRPSGIPARFSGSNSGNTATLTISGTQAMDESEYYCQAWDSSVVVFGGGTKLTVLGSRGGGGSGGGGSGGGGSLEMAEVQLVESGGGLVQPGRSLRLSCAASGFTFDDYAMHWVRQAPGKGLEWVSGISWNSGSIGYADSVKGRFTISRDNAKNSLYLQMNSLRDEDTALYYCAKDRGGGVIVKDAFDIWGQGTMVTVSSTSGQAGQHHHHHHGAYPYDVPDYAS | no binding | no binding | no binding | binds
8 | ET200-007 (scFv, screened as phage clone; entry is VL-linker-VH-His tag-HA tag) scFv: SYVLTQPLSVSVAPGKTARITCGGNNIGSKTVHWYQQKPGQAPVLVIYYDSDRPSGIPERFSGSNSGNTATLTISRVEAGDEADYYCQVWDSSSDHRVFGGGTKLTVLGSRGGGGSGGGGSGGGGSLEMAQVQLQESGPGLVKPSETLSLTCNVSGYSISSGYFWGWIRQPPGKGLEWIGSIYHSRSTYYNPSLKSRVTISVDTSKNQFSLKLNSVTAADTAVYYCARGYGYFDYWGQGTLVTVSSTSGQAGQHHHHHHGAYPYDVPDYAS | no binding | no binding | no binding | binds
